{
  "source": "patent US20090081786A1",
  "about": "(published 2009)",
  "binders": {"B1": {"name": "myelin basic protein (MBP)-delta V1 PKC fusion protein (other)", "chain": "MAPFLRISFNSYELGSLQAEDDASQPFCAVKMKEALTTDRGKTLVQKKPTMYPEWKSTFDAHIYEGRVIQIVLMRAAEDPMSEVTVGVSVLAERCKKNNGKAEFWLDLQPQAKVLMCVQYFLEDGDCKQSMRSEEEAMFPTMNRRGAIKQAKIHYIKNHE", "notes": "Used as crude bacterial cell lysate (30 µg) containing the fusion protein; also called MBP-δV1; δ-V1; not shown: fusion tag printed as 'myelin basic protein (MBP)'"}, "B2": {"name": "glutathione-S-transferase-delta V5 PKC fusion protein (other)", "chain": "PKVKSPSDYSNFDPEFLNEKPQLSFSDKNLIDSMDQEAFHGFSFVNPKFEQFLDI", "notes": "Used as crude bacterial cell lysate (30 µg) containing the fusion protein; also called GST-δV5; δ-V5; not shown: glutathione-S-transferase (GST) fusion tag"}, "B3": {"name": "annexin V (other)", "chain": "AQVLRGTVTDFPGFDERADAETLRKAMKGLGTDEESILTLLTSRSNAQRQEISAAFKTLFGRDLLDDLKSELTGKFEKLIVALMKPSRLYDAYELKHALKGAGTNEKVLTEIIASRTPEELRAIKQVYEEEYGSSLEDDVVGDTSGYYQRMLVVLLQANRDPDAGIDEAQVEQDAQALFQAGELKWGTDEEKFITIFGTRSVSHLRKVFDKYMTISGFQIEETIDRETSGNLEQLLLAVVKSIRSIPAYLAETLYYAMKGAGTDDHTLIRVMVSRSEIDLFNIRKEFRKNFATSLYSMIKGDTSGDYKKALLLLCGEDD", "notes": "10 µg annexin V was run on SDS-PAGE, blotted to nitrocellulose and used as the immobilized partner in the overlay assay; also called immobilized annexin V"}, "B4": {"name": "ε-V1 (V1 region of ε-PKC) (other)", "chain": "MVVFNGLLKIKICEAVSLKPTAWSLRHAVGPRPQTFLLDPYIALNVDDSRIGQTATKQKTNSPAWHDEFVTDVCNGRKIELAVFHDAPIGYDDFVANCTIQFEELLQNGSRHFEDWIDLEPEGKVYVIIDLSGSSGEAPKDNEE"}},
  "key": {"annexin V [1]": {"target": "B3", "test": "overlay assay on blotted annexin V (figure legend, FIGS. 1A-D)", "procedure": "(§1) The strips were incubated with blocking buffer (50 mM Tris pH 7.5, 200 mM NaCl, 3% bovine serum albumin, 0.1% PEG20). […] The strips where then washed with wash buffer (50 mM Tris pH 7.5, 200 mM NaCl, 0.1% PEG20, 12 mM β-mercaptoethanol), and then incubated with fixative (0.2% formaldehyde in PBS) and neutralizing solution (0.2M glycine in PBS) at room temperature 20 min each. After washing with buffer, the strips were probed with antibodies according to the overlay protein, and resulting bands were visualized using ECL Western blotting."}, "annexin V [2]": {"target": "B3", "test": "overlay assay on blotted annexin V, FIG. 1D", "procedure": "as §1"}, "full-length δ-PKC": {"target": "T1, full-length δ-PKC (Mus musculus (Mouse), UniProt P28867 1-674)", "T1 construct": "Full-length δ-PKC in the overlay assay; also called δ-protein kinase C; delta PKC", "test": "overlay assay on blotted annexin V (figure legend, FIGS. 1A-D)", "procedure": "as §1"}, "annexin V [3]": {"target": "B3", "test": "overlay assay on annexin V blotted to nitrocellulose, FIG. 1D", "procedure": "as §1"}},
  "data": [
    {"binder": "B1", "values": [
      {"measurement": "binding result", "setting": "annexin V [1]", "value": "binds"}
    ]},
    {"binder": "B2", "values": [
      {"measurement": "binding result", "setting": "annexin V [2]", "value": "binds"}
    ]},
    {"binder": "B3", "values": [
      {"measurement": "binding result", "setting": "full-length δ-PKC", "value": "binds"}
    ]},
    {"binder": "B4", "values": [
      {"measurement": "binding result", "setting": "annexin V [3]", "value": "no binding"}
    ]}
  ]
}
